B1: Anti-PILRA antibody clone 9 (antibody, V domains shown)
VH: QVQLQESGPGLVKPSGTLSLTCAVSGGSISSNNWWSWVRQPPGKGLEWIGEIYHFGTTTYNPSLKSRVTISVDKSKNQFSLKLSSLTAADTAVYYCARTLRDFYYYMDVWGKGTTVTVSS
VL: DIHMTQSPSSLSASVGDRVTITCRTSQNINTYLNWYQQRPGRAPKLLIYAASSLQSGVPSRFSGSGSGTDFILSISSLQPEDFATYYCQQSFNIPLTFGGGTKVEIK
notes: also called Ab; Clone 9
B2: Anti-PILRA antibody clone 8 (antibody, V domains shown)
VH: QVQLVQSGAEVKKPGASVKVSCKASGYTFTGHYMHWVRQAPGQGLEWMGWINPNSGDTDYAQKFQGRVTMTRDTSISTAYMDLNRLRSDDTAVFYCAREGLDGDPFDYWGQGTLVTVSS
VL: EIMLTQTPLSSPVTLGQPASISCRSSQSLVHSDGNTYLSWLQQRPGQPPRLLIYNISNRFSGVPDRFSGRGAGTDFTLKISRVEAEDVGVYYCIQTTQFSTFGQGTKLEIK
B3: Anti-PILRA antibody clone 10 (antibody, V domains shown)
VH: EVQLVQSGAEIRKPGESLKISCKGSGYSFTTYWIAWVRQMPGKGLEWMGIIYPGDSDTRYSPSFQGQVTISADKSITTAYLQWSSLKASDTGIYYCARTYYYFSGSHWDAFDIWGQGTMVTVSS
VL: DIQMTQSPSSVSAYVGDRVTITCRASQDIRDCLAWYQQKPGKAPKFLIYAASSFQSGVPSGFSGSGSGTDFTLTVTSLQPEDSATYYCQQTHSFPYTFGQGTKLEIK
notes: also called Ab; Clone 10
B4: Anti-PILRA antibody clone 11 (antibody, V domains shown)
VH: EVKLVESGGGLVRPGGSQKLSCAVSGFAFSGYDMSWVRQTPEKRLEWVATISNGGRHTYYPDSVKGRFTISRDNARNTLYLQMSSLRSEDTALYYCARQKTWDVHAMDYWGQGTSVTVSS
VL: QLVLTQSSSASFSLGASAKLTCTLSSQHSTYTIEWYQQQPLKPPKYVMELKKDGSHSTGDGIPDRFSGSSSGADRYLSISNIQPEDEAIYICGVGDTIKEQFVYVFGGGTKVTVL
B5: Anti-PILRA antibody clone 3 (antibody, V domains shown)
VH: EVQLVESGGGLVQPGRSLRLSCAASGFTFDDYAIHWVRQAPGKGLEWVSGMSWNSGSIGYGDSVKGRFTISRDNAKNSLYLQMNSLRAEDTAFYYCAKDKSIGAAGRFDCWGQGTLVTVSS
VL: not shown
B6: Anti-PILRA antibody clone 36 (antibody, V domains shown)
VH: EVQLVQSGAEVKKPGASVKVSCKASGYTFTEYYMYWVRQAPGQGLELIGRIDPEDGGTDYIEKFKNRVTLTADTSTSTAYLELSSLRSEDTAVYYCATTIRGTVFAFWGQGTLVTVSS
VL: DIQMTQSPSSLSASVGDRVTITCRPSEDIYNGLAWYQQKPGKAPKLLIYNANSLHTGVPSRFSGSGSGTDYTLTISSLQPEDFATYFCQQYYDYPLTFGQGTKVEIK
notes: Humanized
B7: Anti-PILRA antibody clone 37 (antibody, V domains shown)
VH: B6 VH
VL: B6 VL with P25A, Y30F, A43S, N52K, S53T, F87Y
notes: Humanized
B8: Anti-PILRA antibody clone 32 (antibody, V domains shown)
VH: B6 VH
VL: B6 VL with A43S
notes: Humanized
B9: Anti-PILRA antibody clone 13 (antibody, V domains shown)
VH: B6 VH
VL: B6 VL with P25A, Y30F, A43S, N52K, S53T, T69S
notes: Humanized
B10: Anti-PILRA antibody clone 14 (antibody, V domains shown)
VH: B6 VH with L70I, Y95F
VL: B6 VL with P25A, Y30F, A43S, N52K, S53T, T69S
notes: Humanized
B11: Anti-PILRA antibody clone 25 (antibody, V domains shown)
VH: B6 VH with V68S, Y95F
VL: B6 VL
notes: Humanized
B12: Anti-PILRA antibody clone 21 (antibody, V domains shown)
VH: B6 VH with V68S, Y95F
VL: B6 VL with F87Y
notes: Humanized
B13: Anti-PILRA antibody clone 33 (antibody, V domains shown)
VH: B6 VH with V68S, Y95F
VL: B6 VL with A43S
notes: Humanized
B14: Anti-PILRA antibody clone 30 (antibody, V domains shown)
VH: B6 VH with I61V, T98S, A106V, F107Y
VL: B6 VL with P25A, Y30F, A43S, N52K, S53T, F87Y
notes: Humanized
B15: Anti-PILRA antibody clone 18 (antibody, V domains shown)
VH: B6 VH with I61V, L70I, Y95F, T98S, A106V, F107Y
VL: B6 VL with P25A, Y30F, A43S, N52K, S53T, T69S
notes: Humanized
B16: Anti-PILRA antibody clone 27 (antibody, V domains shown)
VH: B6 VH with I61V, V68A, Y95F, T98S, A106V, F107Y
VL: B6 VL
notes: Humanized
B17: Anti-PILRA antibody clone 29 (antibody, V domains shown)
VH: B6 VH with V68S, Y95F
VL: B6 VL with P25A, Y30F, A43S, N52K, S53T, F87Y
notes: Humanized
B18: Anti-PILRA antibody clone 26 (antibody, V domains shown)
VH: B6 VH with I61V, T98S, A106V, F107Y
VL: B6 VL
notes: Humanized
B19: Anti-PILRA antibody clone 31 (antibody, V domains shown)
VH: B6 VH with I61V, V68A, Y95F, T98S, A106V, F107Y
VL: B6 VL with P25A, Y30F, A43S, N52K, S53T, F87Y
notes: Humanized
B20: Anti-PILRA antibody clone 17 (antibody, V domains shown)
VH: B6 VH with I61V, T98S, A106V, F107Y
VL: B6 VL with P25A, Y30F, A43S, N52K, S53T, T69S
notes: Humanized
B21: Anti-PILRA antibody clone 20 (antibody, V domains shown)
VH: B6 VH
VL: B6 VL with F87Y
notes: Humanized
B22: Anti-PILRA antibody clone 34 (antibody, V domains shown)
VH: B6 VH with I61V, T98S, A106V, F107Y
VL: B6 VL with A43S
notes: Humanized
B23: Anti-PILRA antibody clone 19 (antibody, V domains shown)
VH: B6 VH with I61V, V68A, Y95F, T98S, A106V, F107Y
VL: B6 VL with P25A, Y30F, A43S, N52K, S53T, T69S
notes: Humanized
B24: Anti-PILRA antibody clone 16 (antibody, V domains shown)
VH: B6 VH with I61V, V68A, L70I, T98S, A106V, F107Y
VL: B6 VL with P25A, Y30F, A43S, N52K, S53T, T69S
notes: Humanized
B25: Anti-PILRA antibody clone 22 (antibody, V domains shown)
VH: B6 VH with I61V, T98S, A106V, F107Y
VL: B6 VL with F87Y
notes: Humanized

The values below come from patent publication US20260109763A1 (DENALI THERAPEUTICS, published 2026).

The term EC50 denotes the concentration that produces a half-maximal response. For orientation: Kd means the free concentration of one partner at which half of the binding sites on the other are occupied at equilibrium, for simple one-to-one binding.

Numbering of substitutions follows the chain as printed.

T2 sequence (Q9UKJ0 20-191 limits assumed): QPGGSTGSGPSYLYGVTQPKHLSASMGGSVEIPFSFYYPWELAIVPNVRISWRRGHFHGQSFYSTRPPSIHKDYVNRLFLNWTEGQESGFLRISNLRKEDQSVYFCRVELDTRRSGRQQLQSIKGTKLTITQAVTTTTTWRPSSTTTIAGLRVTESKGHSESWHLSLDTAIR

The target of the first experiment is T1, human PILRA G78 on cells (human, UniProt Q9UKJ1 20-303).
T1 construct: wild-type iMicroglia are R78/G78 heterozygous (said in the assay field); also called hPILRA; hPILRA G78
T1 sequence (Q9UKJ1 20-303 R78G limits assumed): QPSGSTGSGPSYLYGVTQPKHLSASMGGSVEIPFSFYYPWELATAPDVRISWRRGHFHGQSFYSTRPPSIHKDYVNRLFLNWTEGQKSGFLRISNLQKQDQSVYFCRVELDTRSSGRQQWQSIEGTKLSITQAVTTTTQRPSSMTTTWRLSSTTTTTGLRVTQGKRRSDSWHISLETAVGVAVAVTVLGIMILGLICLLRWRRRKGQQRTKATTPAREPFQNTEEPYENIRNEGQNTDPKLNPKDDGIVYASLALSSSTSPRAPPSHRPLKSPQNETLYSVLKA
As to the kind of experiment: flow cytometry on HEK293 cells expressing hPILRA G78. For orientation: A flow cytometer gives signals particle by particle.
Method: Parental HEK293 cells were labeled with NucBlue Live ReadyProbes Reagent for 30 mins. […] Antibody binding to the cells was detected by FACS and median fluorescence intensity (MFI) was derived from data analysis performed with the FLOJO software (FIGS. 1A-1C).
Turning to B1, the midpoint of the response, the EC50, lay at 1.28 nM. In turn, B2 had a concentration giving a half-maximal response (EC50) of 536 nM. Molecule B3 had an EC50 of 1.28 nM. B4 gave an EC50 of 10.5 nM. In the case of B5, the EC50 worked out at 14.1 nM.

The next experiment has as its target T2, human PILRB extracellular domain (recombinant) (human, UniProt Q9UKJ0 20-191).
T2 construct: also called hPILRB
As to the kind of experiment: SPR.
Consider B6, for which the dissociation constant (Kd) was 42 to 97 nM. Take B7: the equilibrium dissociation constant (Kd) was 100 to 150 nM.

In another experiment the target is T3, human PILRA G78 extracellular domain (recombinant hPILRA ECD) (human, UniProt Q9UKJ1 20-197).
T3 construct: also called hPILRA G78
T3 sequence (Q9UKJ1 20-197 R78G limits assumed): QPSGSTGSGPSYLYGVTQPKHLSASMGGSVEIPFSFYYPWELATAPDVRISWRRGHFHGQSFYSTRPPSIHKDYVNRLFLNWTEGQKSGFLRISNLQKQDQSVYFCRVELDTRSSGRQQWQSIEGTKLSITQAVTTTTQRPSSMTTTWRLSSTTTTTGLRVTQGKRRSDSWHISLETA
As to the kind of experiment: SPR, Biacore 8K; hPILRA ECD; antibody with wild-type Fc.
Method: (§1) Antibodies were captured on Biacore™ Series S CM5 sensor chips immobilized with mouse anti-human Fab (human Fab capture kit from GE Healthcare) followed by injections of serial 3-fold dilutions of recombinant ECD reagents at a flow rate of 30 μL/min. Each sample was analyzed using a 3-minute association followed by a 10-minute dissociation. After each injection, the sensor chip was regenerated using a 5 0 mM glycine pH2.0 regeneration buffer. A 1:1 Languir model of simultaneous fitting of kₒₙ and koff was used for kinetics analysis.
Characterization for binding affinities of the humanized antibodies to hPILRA ECD were measured by SPR using a Biacore 8K instrument (Table 7).
Consider B8, for which the dissociation constant Kd came to 2.8 nM. For B9, the Kd was determined as 0.655 nM. With B10, the Kd was determined as 1.63 nM.

Take B11: the Kd turned out to be 0.794 nM. On the same count and under the same terms, next, B12: 0.667 nM; B13: 2.04 nM; B14: 0.878 nM. Take B15: the dissociation constant Kd was 7.53 nM. On the same count and under the same terms, next, B16: 0.536 nM. Regarding B17, the Kd was found to be 1.28 nM. On the same count and under the same terms, next, B18: 0.511 nM. With B19, the dissociation constant (Kd) is 0.915 nM.

Turning to B20, the dissociation constant (Kd) stood at 1.29 nM. The same measure, in the same setting: under B21 stands 1.73 nM; under B22, 1.8 nM. In the case of B23, the Kd was 2 nM.

Regarding B24, the Kd came to 11 nM. Consider B25, for which the Kd came to 0.515 nM.

In another experiment the target is T1, human PILRA G78 on cells. As to the kind of experiment: cell-based or functional assay.
As for B1, the “pSTAT3 Y705 induction, EC50 (nM)” value came to 5.93 nM and the “pSTAT3 Y705 induction, Fold Over Background” value was found to be 16.9 fold. As to B3, the “pSTAT3 Y705 induction, EC50 (nM)” value was 5.69 nM and the “pSTAT3 Y705 induction, Fold Over Background” value came out at 26.7 fold. For B4, the “pSTAT3 Y705 induction, Fold Over Background” value is 1.42 fold.

A further experiment concerns the target T3, human PILRA G78 extracellular domain …. As to the kind of experiment: SPR, Biacore 8K; antibody captured via anti-human Fab, recombinant ECD injected; 1:1 fit.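 Further: CM5 sensor chip, ECD analyte in threefold dilution series at 30 µL/min, 3 min association and 10 min dissociation, kon and koff fitted simultaneously.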
Method: as §1
For the molecule B1, the Kd was determined as 1.6 nM.

Regarding B2, the dissociation constant (Kd) stood at 11 nM. In the case of B3, the equilibrium dissociation constant (Kd) is 61 nM. On to B4, for which the dissociation constant Kd came to 140 nM. B5: the Kd was 1.7 nM.

In the next experiment the target is T4, cynomolgus monkey PILRA extracellular domain (recombinant) (cynomolgus monkey).
T4 construct: also called cynoPILRA; Cyno PILRA
T4 sequence (chain, as listed by the source limits assumed): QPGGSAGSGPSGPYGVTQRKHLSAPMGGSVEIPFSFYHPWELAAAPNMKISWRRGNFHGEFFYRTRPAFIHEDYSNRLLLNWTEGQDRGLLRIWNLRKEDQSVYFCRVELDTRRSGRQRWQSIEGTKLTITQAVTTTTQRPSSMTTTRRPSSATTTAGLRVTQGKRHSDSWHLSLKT
Described as above.
Method: as §1
On to B2, for which the Kd was 59 nM. On to B4, for which the Kd stood at 110 nM. As to B5, the Kd amounted to 3 nM.

The target of a further experiment is T2, human PILRB extracellular domain …. As to the kind of experiment: SPR, Biacore 8K, recombinant ECD.
Method: as §1
Consider B1, for which the binding result is on record as “no binding”. For B2, the binding result is “no binding”. Turning to B3, the binding result was “no binding”. On the same count and under the same terms, under B4 stands “no binding”.

Take B5: the binding result was “no binding”.

The target of another experiment is T4, cynomolgus monkey PILRA extracellular …. As to the kind of experiment: SPR, Biacore 8K, recombinant ECD.
Method: as §1
Turning to B1, the binding result is “no binding”. For B3, the binding result is on record as “no binding”.
